The target in assay [1] is T1, Thrombospondin-1 (TSP-1) (human, UniProt P07996 19-1170).
T1 construct: mature; Native protein from human platelet releasate. 'Mature' is inferred from that source
Description: solid phase competition: 125I-TSP-1 binding to immobilized HRGP.
Description: Solid phase binding assays were performed as described (18). […] Non-specific binding was determined by carrying out binding in the presence of excess unlabeled ligand.

Assay [2] concerns the target T1, Thrombospondin-1 (TSP-1). Briefly: cell-based or functional assay.

T1 sequence (P07996 19-1170): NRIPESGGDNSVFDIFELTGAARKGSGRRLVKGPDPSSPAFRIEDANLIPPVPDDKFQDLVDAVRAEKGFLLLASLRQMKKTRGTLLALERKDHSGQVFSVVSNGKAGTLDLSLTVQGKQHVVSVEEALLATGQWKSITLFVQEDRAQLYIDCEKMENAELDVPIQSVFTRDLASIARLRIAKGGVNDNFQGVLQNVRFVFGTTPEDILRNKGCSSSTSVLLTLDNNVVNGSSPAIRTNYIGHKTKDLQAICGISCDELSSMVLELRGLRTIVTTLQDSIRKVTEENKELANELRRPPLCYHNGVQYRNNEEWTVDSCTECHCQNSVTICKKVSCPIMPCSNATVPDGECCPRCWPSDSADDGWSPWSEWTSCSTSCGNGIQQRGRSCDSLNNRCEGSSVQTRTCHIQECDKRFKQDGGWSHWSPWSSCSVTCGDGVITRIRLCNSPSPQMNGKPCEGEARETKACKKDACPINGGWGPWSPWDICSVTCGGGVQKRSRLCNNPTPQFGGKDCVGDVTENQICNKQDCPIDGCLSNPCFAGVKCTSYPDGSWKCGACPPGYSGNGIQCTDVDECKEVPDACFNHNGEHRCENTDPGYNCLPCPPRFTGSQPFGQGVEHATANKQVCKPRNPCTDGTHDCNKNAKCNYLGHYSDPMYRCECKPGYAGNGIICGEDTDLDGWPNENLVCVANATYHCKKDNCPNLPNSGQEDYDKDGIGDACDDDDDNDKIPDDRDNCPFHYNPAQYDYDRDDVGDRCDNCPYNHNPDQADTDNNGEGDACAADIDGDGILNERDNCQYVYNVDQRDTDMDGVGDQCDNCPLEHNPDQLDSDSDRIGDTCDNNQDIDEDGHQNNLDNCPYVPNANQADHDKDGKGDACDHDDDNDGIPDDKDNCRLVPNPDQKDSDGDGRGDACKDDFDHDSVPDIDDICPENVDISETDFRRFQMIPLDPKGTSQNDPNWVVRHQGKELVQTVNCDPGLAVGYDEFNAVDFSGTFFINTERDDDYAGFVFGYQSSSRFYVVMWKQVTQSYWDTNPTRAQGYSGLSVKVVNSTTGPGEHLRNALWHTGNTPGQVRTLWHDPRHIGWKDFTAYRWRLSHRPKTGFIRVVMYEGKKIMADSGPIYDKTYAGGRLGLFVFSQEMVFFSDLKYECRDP

B1: CD36 FP298-439 (other, UniProt P16671 298-439, looked up)
chain: KAFASPVENPDNYCFCTEKIISKNCTSYGVLDISKCKEGRPVYISLPHFLYASPDVSEPIDGLNPNEEEHRTYLDIEPITGFTLQFAKRLQVNLLVKPSEKIQVLKNLKRNYIVPILWLNETGTIGDEKANMFRSQVTGKIN
notes: also called GST-CD36 fusion protein; not shown: Glutathione-S-transferase fusion partner
B1: in the assay with Thrombospondin-1 (TSP-1) [1], the binding result is given as “no binding”.

B2: Histidine-rich glycoprotein (HRGP) (other, human, UniProt P04196 19-525, looked up)
chain: VSPTDCSAVEPEAEKALDLINKRRRDGYLFQLLRIADAHLDRVENTTVYYLVLDVQESDCSVLSRKYWNDCEPPDSRRPSEIVIGQCKVIATRHSHESQDLRVIDFNCTTSSVSSALANTKDSPVLIDFFEDTERYRKQANKALEKYKEENDDFASFRVDRIERVARVRGGEGTGYFVDFSVRNCPRHHFPRHPNVFGFCRADLFYDVEALDLESPKNLVINCEVFDPQEHENINGVPPHLGHPFHWGGHERSSTTKPPFKPHGSRDHHHPHKPHEHGPPPPPDERDHSHGPPLPQGPPPLLPMSCSSCQHATFGTNGAQRHSHNNNSSDLHPHKHHSHEQHPHGHHPHAHHPHEHDTHRQHPHGHHPHGHHPHGHHPHGHHPHGHHPHCHDFQDYGPCDPPPHNQGHCCHGHGPPPGHLRRRGPGKGPRPFHCRQIGSVYRLPPLRKGEVLPLPEANFPSFPLPHHKHPLKPDNQPFPQSVSESCPGKFKSGFPQVSMFFTHTFPK
Turning to B2, in the assay with Thrombospondin-1 (TSP-1) [2], the “area of neovascularization relative to bFGF alone, corneal assay, pellets with bFGF, TSP-1 and HRGP (100 ng, HRGP:TSP-1 molar ratio 3:1)” value came out at 82.5%.

The values are drawn from patent publication US20010041670A1 (published 2001).
